From patent US20240117019A1

B1: human monoclonal antibody PhtD3 (antibody, V domains shown)
VH: QVQLVQSGPDVKKPGSSVKVSCKASGAAFESFAFAWVRQAPGQGFEWMGRIIPILETRDYAEKFQGRMTMTTDESTATAYMELNSLRFEDTAVYFCARDGHIMRTTLSDAALDVWGQGTTVIVSS
VL: DIVMTQSPVTLSLSPGERATLSCRASQSLTDNYLAWYQQKPGQAPRLLIYAASTRATGIPDRISGSGSGTDFTLTISRVEPEDFAMFYCQQYQNSPFTFGGGTTVEIK
B2: PhtD3-IgG2a (recombinant chimera of mAb PhtD3 with a mouse IgG2a Fc region) (antibody, V domains shown)
VH: B1 VH
VL: B1 VL

Columns and labels:
[1] = biological target: PhtD, serotype 9N (Streptococcus pneumoniae); assay: flow cytometry on whole bacteria, serotype 9N, mAb 10 µg/ml, APC anti-human IgG Fc; no mAb 1.5
[2] = biological target: recombinant His-tagged full-length pneumococcal histidine triad protein D (PhtD) from strain TCH8431 (serotype 19A) (Streptococcus pneumoniae strain TCH8431 (serotype 19A)); assay: competitive BLI, His-tagged PhtD on anti-penta-HIS tips; first mAb PhtD7, then second mAb, each 100 µg/mL; white cell
[3] = biological target: PhtD, WU2 (3) (Streptococcus pneumoniae); assay: flow cytometry on whole bacteria, 3 (WU2), mAb 10 µg/ml, APC anti-human IgG Fc; no mAb 1.3
[4] = biological target: PhtD, serotype 6C (Streptococcus pneumoniae); assay: flow cytometry on whole bacteria, serotype 6c, mAb 10 µg/ml, APC anti-human IgG Fc; no mAb 1.3
[5] = biological target: PhtD, serotype 2 (Streptococcus pneumoniae); assay: flow cytometry on whole bacteria, serotype 2, mAb 10 µg/ml, APC anti-human IgG Fc; no mAb 0.6
[6] = biological target: recombinant His-tagged full-length pneumococcal histidine triad protein D (PhtD) from strain TCH8431 (serotype 19A) (Streptococcus pneumoniae strain TCH8431 (serotype 19A)); assay: ELISA on coated recombinant PhtD, OD405
[7] = biological target: PhtD 168-343 (Streptococcus pneumoniae); assay: ELISA on coated MBP-PhtD fragment, OD405
[8] = biological target: PhtD 1-170 (Streptococcus pneumoniae); assay: ELISA on coated MBP-PhtD fragment, OD405
[9] = biological target: PhtD 1-343 (Streptococcus pneumoniae); assay: ELISA on coated MBP-PhtD fragment, OD405
[10] = biological target: recombinant His-tagged full-length pneumococcal histidine triad protein D (PhtD) from strain TCH8431 (serotype 19A) (Streptococcus pneumoniae strain TCH8431 (serotype 19A)); assay: ELISA on coated recombinant PhtD, non-linear regression fit
[11] = biological target: recombinant His-tagged full-length pneumococcal histidine triad protein D (PhtD) from strain TCH8431 (serotype 19A) (Streptococcus pneumoniae strain TCH8431 (serotype 19A)); assay: competitive BLI, His-tagged PhtD on anti-penta-HIS tips; first mAb PhtD3, then second mAb, each 100 µg/mL; black cell
[12] = biological target: recombinant His-tagged full-length pneumococcal histidine triad protein D (PhtD) from strain TCH8431 (serotype 19A) (Streptococcus pneumoniae strain TCH8431 (serotype 19A)); assay: competitive BLI, His-tagged PhtD on anti-penta-HIS tips; first mAb PhtD6, then second mAb, each 100 µg/mL; grey cell
[13] = biological target: recombinant His-tagged full-length pneumococcal histidine triad protein D (PhtD) from strain TCH8431 (serotype 19A) (Streptococcus pneumoniae strain TCH8431 (serotype 19A)); assay: competitive BLI, His-tagged PhtD on anti-penta-HIS tips; first mAb PhtD8, then second mAb, each 100 µg/mL; white cell
[14] = biological target: PhtD protein of pneumococcal strain TIGR4 (serotype 4), native, in bacterial lysates (Streptococcus pneumoniae strain TIGR4 (serotype 4)); assay: flow cytometry on whole bacteria, 4 (TIGR4), mAb 10 µg/ml, APC anti-human IgG Fc; no mAb 0.1
[15] = biological target: PhtD protein of pneumococcal strain TCH8431 (serotype 19A), native, in bacterial lysates (Streptococcus pneumoniae strain TCH8431 (serotype 19A)); assay: flow cytometry on whole bacteria, 19A (TCH8431), mAb 10 µg/ml, APC anti-human IgG Fc; no mAb 0.4
[16] = biological target: PhtD, serotype 6D (Streptococcus pneumoniae); assay: flow cytometry on whole bacteria, serotype 6d, mAb 10 µg/ml, APC anti-human IgG Fc; no mAb 0.4
[17] = biological target: PhtD, serotype 11A (Streptococcus pneumoniae); assay: flow cytometry on whole bacteria, serotype 11A, mAb 10 µg/ml, APC anti-human IgG Fc; no mAb 0.6
[18] = biological target: PhtD, serotype 12F (Streptococcus pneumoniae); assay: flow cytometry on whole bacteria, serotype 12F, mAb 10 µg/ml, APC anti-human IgG Fc; no mAb 0.3

Binder | % APC+ [1] [%] | percent binding of the second mAb in the presence of the first mAb [2] [%] | % APC+ [3] [%] | % APC+ [4] [%] | % APC+ [5] [%] | EC50 (read off the curve) [6] [µg/mL] | EC50 (read off the curve) [7] [µg/mL] | EC50 (read off the curve) [8] [µg/mL] | EC50 (read off the curve) [9] [µg/mL] | EC50 [10] [µg/mL] | percent binding of the second mAb in the presence of the first mAb [11] [%] | percent binding of the second mAb in the presence of the first mAb [12] [%] | percent binding of the second mAb in the presence of the first mAb [13] [%] | % APC+ [14] [%] | % APC+ [15] [%] | % APC+ [16] [%] | % APC+ [17] [%] | % APC+ [18] [%]
B1 | 28.1 | 81 | 16 | 4.2 | 3.2 | 0.1 | 0.1 | 0.1 | 0.1 | 0.045 | 9 | 47 | 77 | 7.2 | 18.3 | 2.4 | 19.6 | 45.8
B2 | – | – | – | – | – | 0.05 | – | – | – | – | – | – | – | – | – | – | – | –
